Measurements as given in US20260242419A1, “A CYCLIC PEPTIDE FOR TRAPPING INTERLEUKIN-1 BETA” (Merck Sharp & Dohme LLC, priority 2023, published 2026).
Starred links: 1 amine or outer side, 2 acyl side, 3 side chain; linkers in the order of their positions; H or OH if unused. Non-standard residues stand in square brackets, D forms with d. PyrimAla4AcPip = (2S)-3-[2-(4-acetylpiperazin-1-yl)pyrimidin-5-yl]-2-amino-propanoic acid, CC(=O)N1CCN(c2ncc(C[C@H](N[*:1])C(=O)[*:2])cn2)CC1; 3AzaPhe4AcPip = (2S)-3-[6-(4-acetylpiperazin-1-yl)-3-pyridyl]-2-amino-propanoic acid, CC(=O)N1CCN(c2ccc(C[C@H](N[*:1])C(=O)[*:2])cn2)CC1; Phe(4-(5-CO2H-2-pyrimidyl)) = N[C@@H](Cc1ccc(-c2ncc(C(=O)O)cn2)cc1)C(=O)O; Phe(4-(4-Ac-piperazinyl)) = CC(=O)N1CCN(c2ccc(C[C@H](N)C(=O)O)cc2)CC1; dPro(4R-(4-pyridylmethyl)) = O=C(O)[C@H]1C[C@@H](Cc2ccncc2)CN1; Trp(βS-Me,4-F) = C[C@@H](c1c[nH]c2cccc(F)c12)[C@H](N)C(=O)O; Bip(4'-COOH) = N[C@@H](Cc1ccc(-c2ccc(C(=O)O)cc2)cc1)C(=O)O; dPro(4R-Bzl(4-F)) = O=C(O)[C@H]1C[C@@H](Cc2ccc(F)cc2)CN1; Ala(pyrimidin-5-yl) = N[C@@H](Cc1cncnc1)C(=O)O; Phe(4-COOH) = N[C@@H](Cc1ccc(C(=O)O)cc1)C(=O)O; Pro(cis-4-F) = O=C(O)[C@@H]1C[C@H](F)CN1; 2Pal = N[C@@H](Cc1ccccn1)C(=O)O; 4Pal = N[C@@H](Cc1ccncc1)C(=O)O; Dab = NCC[C@H](N)C(=O)O; Aib = CC(C)(N)C(=O)O

B1: SEQ ID NO: 41 (peptide)
peptide: cyclo([Bip(4'-COOH)][4Pal][Phe(4-COOH)]G[Pro(cis-4-F)][Trp(βS-Me,4-F)][Aib]AW[Aib][Ala(pyrimidin-5-yl)]Q[Dab]G[dPro(4R-(4-pyridylmethyl))])
SMILES: C[C@@H]1NC(=O)C(C)(C)NC(=O)[C@H]([C@@H](C)c2c[nH]c3cccc(F)c23)NC(=O)[C@@H]2C[C@H](F)CN2C(=O)CNC(=O)[C@H](Cc2ccc(C(=O)O)cc2)NC(=O)[C@H](Cc2ccncc2)NC(=O)[C@H](Cc2ccc(-c3ccc(C(=O)O)cc3)cc2)NC(=O)[C@H]2C[C@@H](Cc3ccncc3)CN2C(=O)CNC(=O)[C@H](CCN)NC(=O)[C@H](CCC(N)=O)NC(=O)[C@H](Cc2cncnc2)NC(=O)C(C)(C)NC(=O)[C@H](Cc2c[nH]c3ccccc23)NC1=O
B2: SEQ ID NO: 4 (peptide)
peptide: cyclo([Bip(4'-COOH)][4Pal][Phe(4-COOH)]G[Pro(cis-4-F)][Trp(βS-Me,4-F)][Aib]EW[Aib][Ala(pyrimidin-5-yl)]Q[Dab]G[dPro(4R-Bzl(4-F))])
SMILES: C[C@@H](c1c[nH]c2cccc(F)c12)[C@@H]1NC(=O)[C@@H]2C[C@H](F)CN2C(=O)CNC(=O)[C@H](Cc2ccc(C(=O)O)cc2)NC(=O)[C@H](Cc2ccncc2)NC(=O)[C@H](Cc2ccc(-c3ccc(C(=O)O)cc3)cc2)NC(=O)[C@H]2C[C@@H](Cc3ccc(F)cc3)CN2C(=O)CNC(=O)[C@H](CCN)NC(=O)[C@H](CCC(N)=O)NC(=O)[C@H](Cc2cncnc2)NC(=O)C(C)(C)NC(=O)[C@H](Cc2c[nH]c3ccccc23)NC(=O)[C@H](CCC(=O)O)NC(=O)C(C)(C)NC1=O
B3: SEQ ID NO: 39 (peptide)
peptide: cyclo([3AzaPhe4AcPip][4Pal][Phe(4-COOH)]G[Pro(cis-4-F)][Trp(βS-Me,4-F)][Aib]EW[Aib][Ala(pyrimidin-5-yl)]Q[Dab]G[dPro(4R-Bzl(4-F))])
SMILES: CC(=O)N1CCN(c2ccc(C[C@@H]3NC(=O)[C@H]4C[C@@H](Cc5ccc(F)cc5)CN4C(=O)CNC(=O)[C@H](CCN)NC(=O)[C@H](CCC(N)=O)NC(=O)[C@H](Cc4cncnc4)NC(=O)C(C)(C)NC(=O)[C@H](Cc4c[nH]c5ccccc45)NC(=O)[C@H](CCC(=O)O)NC(=O)C(C)(C)NC(=O)[C@H]([C@@H](C)c4c[nH]c5cccc(F)c45)NC(=O)[C@@H]4C[C@H](F)CN4C(=O)CNC(=O)[C@H](Cc4ccc(C(=O)O)cc4)NC(=O)[C@H](Cc4ccncc4)NC3=O)cn2)CC1
B4: SEQ ID NO: 38 (peptide)
peptide: cyclo([Phe(4-(5-CO2H-2-pyrimidyl))][4Pal][Phe(4-COOH)]G[Pro(cis-4-F)][Trp(βS-Me,4-F)][Aib]EW[Aib][Ala(pyrimidin-5-yl)]Q[Dab]G[dPro(4R-Bzl(4-F))])
SMILES: C[C@@H](c1c[nH]c2cccc(F)c12)[C@@H]1NC(=O)[C@@H]2C[C@H](F)CN2C(=O)CNC(=O)[C@H](Cc2ccc(C(=O)O)cc2)NC(=O)[C@H](Cc2ccncc2)NC(=O)[C@H](Cc2ccc(-c3ncc(C(=O)O)cn3)cc2)NC(=O)[C@H]2C[C@@H](Cc3ccc(F)cc3)CN2C(=O)CNC(=O)[C@H](CCN)NC(=O)[C@H](CCC(N)=O)NC(=O)[C@H](Cc2cncnc2)NC(=O)C(C)(C)NC(=O)[C@H](Cc2c[nH]c3ccccc23)NC(=O)[C@H](CCC(=O)O)NC(=O)C(C)(C)NC1=O
B5: SEQ ID NO: 37 (peptide)
peptide: cyclo([Phe(4-(4-Ac-piperazinyl))][4Pal][Phe(4-COOH)]G[Pro(cis-4-F)][Trp(βS-Me,4-F)][Aib]EW[Aib][Ala(pyrimidin-5-yl)]Q[Dab]G[dPro(4R-Bzl(4-F))])
SMILES: CC(=O)N1CCN(c2ccc(C[C@@H]3NC(=O)[C@H]4C[C@@H](Cc5ccc(F)cc5)CN4C(=O)CNC(=O)[C@H](CCN)NC(=O)[C@H](CCC(N)=O)NC(=O)[C@H](Cc4cncnc4)NC(=O)C(C)(C)NC(=O)[C@H](Cc4c[nH]c5ccccc45)NC(=O)[C@H](CCC(=O)O)NC(=O)C(C)(C)NC(=O)[C@H]([C@@H](C)c4c[nH]c5cccc(F)c45)NC(=O)[C@@H]4C[C@H](F)CN4C(=O)CNC(=O)[C@H](Cc4ccc(C(=O)O)cc4)NC(=O)[C@H](Cc4ccncc4)NC3=O)cc2)CC1
B6: SEQ ID NO: 40 (peptide)
peptide: cyclo([PyrimAla4AcPip][4Pal][Phe(4-COOH)]G[Pro(cis-4-F)][Trp(βS-Me,4-F)][Aib]EW[Aib][Ala(pyrimidin-5-yl)]Q[Dab]G[dPro(4R-Bzl(4-F))])
SMILES: CC(=O)N1CCN(c2ncc(C[C@@H]3NC(=O)[C@H]4C[C@@H](Cc5ccc(F)cc5)CN4C(=O)CNC(=O)[C@H](CCN)NC(=O)[C@H](CCC(N)=O)NC(=O)[C@H](Cc4cncnc4)NC(=O)C(C)(C)NC(=O)[C@H](Cc4c[nH]c5ccccc45)NC(=O)[C@H](CCC(=O)O)NC(=O)C(C)(C)NC(=O)[C@H]([C@@H](C)c4c[nH]c5cccc(F)c45)NC(=O)[C@@H]4C[C@H](F)CN4C(=O)CNC(=O)[C@H](Cc4ccc(C(=O)O)cc4)NC(=O)[C@H](Cc4ccncc4)NC3=O)cn2)CC1
B7: SEQ ID NO: 35 (peptide)
peptide: cyclo([Bip(4'-COOH)][4Pal][Phe(4-COOH)]G[Pro(cis-4-F)][Trp(βS-Me,4-F)][Aib]EW[Aib]FQRG[dPro(4R-Bzl(4-F))])
SMILES: C[C@@H](c1c[nH]c2cccc(F)c12)[C@@H]1NC(=O)[C@@H]2C[C@H](F)CN2C(=O)CNC(=O)[C@H](Cc2ccc(C(=O)O)cc2)NC(=O)[C@H](Cc2ccncc2)NC(=O)[C@H](Cc2ccc(-c3ccc(C(=O)O)cc3)cc2)NC(=O)[C@H]2C[C@@H](Cc3ccc(F)cc3)CN2C(=O)CNC(=O)[C@H](CCCNC(=N)N)NC(=O)[C@H](CCC(N)=O)NC(=O)[C@H](Cc2ccccc2)NC(=O)C(C)(C)NC(=O)[C@H](Cc2c[nH]c3ccccc23)NC(=O)[C@H](CCC(=O)O)NC(=O)C(C)(C)NC1=O
B8: SEQ ID NO: 36 (peptide)
peptide: cyclo([Bip(4'-COOH)][4Pal][Phe(4-COOH)]G[Pro(cis-4-F)][Trp(βS-Me,4-F)][Aib]EW[Aib][2Pal]QSG[dPro(4R-Bzl(4-F))])
SMILES: C[C@@H](c1c[nH]c2cccc(F)c12)[C@@H]1NC(=O)[C@@H]2C[C@H](F)CN2C(=O)CNC(=O)[C@H](Cc2ccc(C(=O)O)cc2)NC(=O)[C@H](Cc2ccncc2)NC(=O)[C@H](Cc2ccc(-c3ccc(C(=O)O)cc3)cc2)NC(=O)[C@H]2C[C@@H](Cc3ccc(F)cc3)CN2C(=O)CNC(=O)[C@H](CO)NC(=O)[C@H](CCC(N)=O)NC(=O)[C@H](Cc2ccccn2)NC(=O)C(C)(C)NC(=O)[C@H](Cc2c[nH]c3ccccc23)NC(=O)[C@H](CCC(=O)O)NC(=O)C(C)(C)NC1=O

What follows are binders tested against Recombinant human IL-1β (BioLegend 579404) (human, UniProt P01584 117-269) (assay: cell-based or functional assay).

MRC5 IC50 | Binder
21 pM | cyclo([Bip(4'-COOH)][4Pal][Phe(4-COOH)]G[Pro(cis-4-F)][Trp(βS-Me,4-F)][Aib]SW[Aib][Ala(pyrimidin-5-yl)]Q[Dab]G[dPro(4R-(4-pyridylmethyl))]) [SEQ ID NO: 42]
29 pM | B1
31 pM | B2
63 pM | B3
41 pM | B4
33 pM | B5
48 pM | B6
49 pM | B7
54 pM | B8
